Reference: the nanobody polyreactivity screen of Harvey et al. (2022)

Test: yeast display, Sf9 membrane polyspecificity reagent, FACS + sequencing; frameworks hold sequencing errors
Procedure, shortened: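 Using colony PCR, genes from sorted yeast display clones were amplified, then sequenced on MiSeq at 2 × 250 and filtered by CDR length. The clones had been stained with 10% biotinylated, detergent-solubilized Sf9 membrane reagent for 1 hour at 4 °C and sorted by FACS into low and high (top ~1%) gates on anti-HA and streptavidin fluorescence. Polyreactivity labels come from the gate of origin.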

For “QVQLVESGGGLVQAGGSLSLSCAASGNIFWGNAMGWYRQAPGKERELVAAITSIDSSTYYADSVKGRFTISRDNAKNTVYLQMNSLKPEDTAVYYCAADGDWYGYIWQSDDGYDSWGQGTQVTVSS”, which “polyreactivity (PSR sort gate)” value is on record?
The value was “low polyreactivity”.

For “QVQLVESGGGLVQAGGSLSLSCAASGNNLYGNAMGWYRPAPGKERELVAGITSGGSTNYADSVKGRFTISRDNAKNTVYLQMNSLKREDTAVYYCNATSSGSIFGYDYWGQGTQVTVSS”, which “polyreactivity (PSR sort gate)” value is on record?
The value was “low polyreactivity”.

For “QVQLVESGGGLVQAGGSLSLSCAASGRIFRYNAMGWYRQAPGKERELVATISRGGGSTYYADSVKGRFTISRDNAKNTVYLQMNSLKPEYTAVYYCAAVTYSRISGGYDYWGQGTQVTVSS”, which “polyreactivity (PSR sort gate)” value is on record?
The value was “high polyreactivity”.

Which “polyreactivity (PSR sort gate)” value does the source give for “QVQLVESGGGLVQAGGSLSLSCAASGRTFKYYTMGWYRQAPGKERELVAAISASGGSTYYADSVKGRFTISRDNAKNTVYLQMNSLKPEDTAVYYCAKGANRAIHKQPTRSRLDSWGQGTQVTVSS” here?
The value was “high polyreactivity”.

Which “polyreactivity (PSR sort gate)” value does the source give for “QVQLVESGGGLVQAGGSLSLSCAASGRTFNSYAMGWYRQAPGKERELVAAISWSGGSTYYADSVKGRFTISRDNAKNTVYLQMNSLKPEDTAVFYCATERYQSSRYRSYWYPFDYWGQGTQVTVSS” here?
The value was “low polyreactivity”.

Which “polyreactivity (PSR sort gate)” value does the source give for “QVQLVESGGGLVQAGGSLSLSCAASGRTFSPYAMGWYRQAPGKERELVAAITNGGSTHYADSVKGRFTISRDNAKNTVYLQMNTLKPEYTAVYYCAKSRVLYGYAEYYEMDYWGQGTQVTVSS” here?
Its value is “low polyreactivity”.

Which “polyreactivity (PSR sort gate)” value does the source give for “QVQLVESGGGLVQAGGSLSLSCAASGRTFSYYTMGWYRQAPGKERELVARISNRGTNTYYADSVKGRFTISRDNAKNTVYLQMNSLTPEDTAVYYCAKYYYTSIVGYDSWGQGTQVTVSS” here?
The value was “low polyreactivity”.

For “QVQLVESGGGLVQAGGSLSLSCAASGSIFGRNTMGWYRQAPGKERELVAAITLRGGSTYYADSVKGRFTISRDNAKKTVYLQMNSLKPEDTSDYYCATDGWKQSAYDYWGQGTQVTVSS”, which “polyreactivity (PSR sort gate)” value is on record?
The value was “low polyreactivity”.

Which “polyreactivity (PSR sort gate)” value does the source give for “QVQLVESGGGLVQAGGSLSLSCAASGSIFGVNAMGWYRQAPGKERELVAAITLRSGSTYYADSVKGRFTISRDNAKNTVYIQMNSLKPEDTAVYYSATYSWGVDRPNYNYWGQGTQVTVSS” here?
Its value is “low polyreactivity”.

For “QVQLVESGGGLVQAGGSLSLSCAASGSIFRTYALGWYRQAPGKERELVASITKSGARTYYADSVKGRFTISRDNAKNTVYLQMNSLKPEDTAVYYCAAGYYSVTSRRYRMYYWGQGTQVTVSS”, which “polyreactivity (PSR sort gate)” value is on record?
The value was “high polyreactivity”.

For “QVQLVESGGGLVQAGGSLSLSCAASGSIFRWYAMGWYRQAPGKERELVALISWRGGSTYADSVKGRFTISRDNAKNTVYLQMNSLKPEDTADYYCNARPGSSYWYDAQWGEYGYWGQGTQVTVSS”, which “polyreactivity (PSR sort gate)” value is on record?
Its value is “high polyreactivity”.

With “QVQLVESGGGLVQAGGSLSLSCAASGSIFSYYAMGWYRQAPGKARELVAAITANGGSTSYADSVKGRFTISRDTANNTVYLQMNRLKPEDTAVYYCAKESDYPDFVSTKGDYDYWGQGTQVTVSS” as the sequence, how does the “polyreactivity (PSR sort gate)” value read?
Its value is “low polyreactivity”.

For “QVQLVESGGGLVQAGGSLSLSCAASGSILAVNAMGWYRQAPGKERELVAAISSRGGSTSYADSVKGRFTISRDNAKNTVYLQMNSLKPEDTAVYYCAVRAVRRLRTSVPVRFYYWGQGTQVTVSS”, which “polyreactivity (PSR sort gate)” value is on record?
The value was “high polyreactivity”.

Which “polyreactivity (PSR sort gate)” value does the source give for “QVQLVESGGGLVQAGGSLSLSCAASGSILYINDMGWYRQAPGKERELVAAISWSGDSTIYADSVKGRFTISRDNAKNTVYLQMNSLKPEDTAVYYCNAVWYGGDMDYWGQGTQVTVSS” here?
Its value is “low polyreactivity”.

For “QVQLVESGGGLVQAGGSLSLSCAASGSIYWYAMGWYRQAPGKERELVSAISRRGGSTYYADSLKGRFTISRDNAKNTVYLQMNSLKPEDTAVYYCAVGIYGEYDYWGQGTQVTVSS”, which “polyreactivity (PSR sort gate)” value is on record?
The value was “high polyreactivity”.

Which “polyreactivity (PSR sort gate)” value does the source give for “QVQLVESGGGLVQAGGSLSLSCAASGSNFYYNVMGWYRQAPGKERELVAAISQSGVRTYYADSVKGRFTISRDNAKNTVYLQMNSLKPEDTAVYYCAAKARRLYASSYDYWGQGTQVTVSS” here?
Its value is “high polyreactivity”.

With “QVQLVESGGGLVQAGGSLSLSCAASGSTFFIYTMGWYRQAPGNEREFVAAISWTGGRTYYADSEKGRFTISRDNAKNTVFLQMNSLTPEDTAVYYCAARYKYSSYDYWGQGTQVTVSS” as the sequence, how does the “polyreactivity (PSR sort gate)” value read?
The value was “high polyreactivity”.

Which “polyreactivity (PSR sort gate)” value does the source give for “QVQLVESGGGLVQAGGSLSLSCAASGSTFIHNAMGWYRQAPGKERELVAAITSGGSTYYADSVKGRFTISRDNAKNTVYLQMNSLKPEDTAVYYCNRVSWRYSTMEYWGHGTQVTVSS” here?
The value was “high polyreactivity”.

With “QVQLVESGGGLVQAGGSLSLSCAASGSTFKHYAMGWYRQAPGKERELVAAISSRGGSTHYADSVKGRFTISRDNAMNTVYLQMNSLKPEDTAVYYCARDTDPQSSRSSDYDYWGQGTHVTVSS” as the sequence, how does the “polyreactivity (PSR sort gate)” value read?
Its value is “low polyreactivity”.

For “QVQLVESGGGLVQAGGSLSLSCAASGSTFNRYAMRSYRQAPGQESELVDTINLNTGSTYADSVKGRFTISRDNAKNTVYLEMNSVKPEDTAVYYCAAVGQTHPTSPLSTKYDYWGQGTQVTVSS”, which “polyreactivity (PSR sort gate)” value is on record?
Its value is “low polyreactivity”.

For “QVQLVESGGGLVQAGGSLSLSCAASGSTFPKYAMGWYRQAPGKERELVAAISGSGGSTYYADSVKGRFTISRDNAKNTVYLQMNSLKPEDTAVYYSAVAWNVRGVGARQRDIYGYWGQGTQVTVST”, which “polyreactivity (PSR sort gate)” value is on record?
The value was “high polyreactivity”.

With “QVQLVESGGGLVQAGGSLSLSCAASGSTFRYYTMGWYRQAPGKERELVAAISWTGGGTYYADSVKGRFTISRDNAKNTVYLQMNSLKPEDTAVYYCAASYYYELFRFDYWGQGTQVTVSS” as the sequence, how does the “polyreactivity (PSR sort gate)” value read?
The value was “high polyreactivity”.

For “QVQLVESGGGLVQAGGSLSLSCAASGSTFSLNTKGWYRQAPRKERELVAAITSGGSTNYADSVKGRFTISRDNAKNTVYLQMNSLKPEDTAVYYCAATPGRGGGYNYWGQGSQVTVSS”, which “polyreactivity (PSR sort gate)” value is on record?
The value was “low polyreactivity”.

For “QVQLVESGGGLVQAGGSLSLSCAASGSTFVGYAMGWYRQAPGKEREFVAAITRGGSTNYADSVKGRFTISRDNAKNTVYLQMNSLNPEDTAVYYCAARDRREGFNFDYWGQGTQVTVSS”, which “polyreactivity (PSR sort gate)” value is on record?
The value was “low polyreactivity”.

For “QVQLVESGGGLVQAGGSLSLSCAASGSTYARYTMGWYRQAPGKERELVAAISGRGGSTYYADSVKGRFTISRDNAKNTVYLQMNSLKPEDTAVYYCAAHDTYHSYGLYSWGQGTQVTVSS”, which “polyreactivity (PSR sort gate)” value is on record?
Its value is “low polyreactivity”.

With “QVQLVESGGGLVQAGGSLSLSCAASGYIVKAYVMGWYRPAPGKVRELVAAITWSGGSTYYADTVKGRFTISRDNAKNTVYLQMNSLKPEDTAVYYCAAYARRYRTPYDFWGQGTQVTLSS” as the sequence, how does the “polyreactivity (PSR sort gate)” value read?
Its value is “high polyreactivity”.

Which “polyreactivity (PSR sort gate)” value does the source give for “QVQLVESGGGLVQAGGSLSLSCAASGYTFLRYAMGWYRQAPGQERELVATISRSGGRTYYADSVKGRFTISRDNAKNTVYLLMNSLKPEDTSVYYCNAEAIVVNGGGYWGQGTQVTVSS” here?
Its value is “high polyreactivity”.

With “QVQLVESGGGLVQAGGSLSLSCAASGYTFYKYAMGSYIQAPGKERELVAAISSSGGSTYYADSVKGRFTISRDNAKNTVYLQMNSLKPEDTAVNYCAAYVYSNDYDYWGQGTQVTVSS” as the sequence, how does the “polyreactivity (PSR sort gate)” value read?
Its value is “high polyreactivity”.

With “QVQLVESGGGLVQAGGSLSLSCAATGLTFQQYAMGWYRQAPWKERELVAAITVSGGHTYYADSVKGRFTISRDNAKNTVYLQMNTLKPEDTAVYYCAAPPGYTGRYDYYYCGQGTQVTVSS” as the sequence, how does the “polyreactivity (PSR sort gate)” value read?
Its value is “high polyreactivity”.

With “QVQLVESGGGLVQAGGSLSLSCSASGRTLYFYAMGWYRQAPGKERELVAAIRWRGGSTYYADSVKGRFTISRDNAKNTVYLQMNSLKPEDTAVYYCAADVPSGYDYWGQGTQVTVSS” as the sequence, how does the “polyreactivity (PSR sort gate)” value read?
Its value is “high polyreactivity”.

For “QVQLVESGGGLVQAGGSLSLSSAASGSTFHRNTMGWYRQAPGKERELVAGISLRGVRTYYADSVKGRFTISRDNAKNSVYLQMNSLKPEDTAVYYCAGGGPYTRNFKLGYWGQGTQVSVSS”, which “polyreactivity (PSR sort gate)” value is on record?
Its value is “high polyreactivity”.

For “QVQLVESGGGLVQAGGSLSLSWAASGSTFFNNAMGWYRQAPGKERELVAGISYGCGRTYYADSVKGRFTISRDNAKNTVFLQMNSLKPEDTAVYYCNTVTSPAPYYSYDRYYWGQGTQVTVSS”, which “polyreactivity (PSR sort gate)” value is on record?
The value was “high polyreactivity”.

Which “polyreactivity (PSR sort gate)” value does the source give for “QVQLVESGGGLVQAGGSLTLICAASGRTLYLNAMGWYRQAPRKERELVAISSGGSTYYADSVKGRFTISRDNAKNTVYLQMNSLKPEVTAVYYCNADEHYHFCYVFWYAYDYWGQGTQVTVSS” here?
Its value is “low polyreactivity”.

Which “polyreactivity (PSR sort gate)” value does the source give for “QVQLVESGGGLVQAGGSNRLSCADSGLIFGFNTMGSYRQAPAKEREMVAVISSSGGSTYYADSVKARFTISRDNAKKTVYFQMNSLKPEDTAVYYSAARAYPVRYRRRDYWGQGTQVTVSS” here?
Its value is “high polyreactivity”.

Which “polyreactivity (PSR sort gate)” value does the source give for “QVQLVESGGGLVQAGGSQRLSCAASGRIFPGNAMGWYRQAPGKERELVAAIRWSGGSTYYADSVKGRFTISRDNAKNTVYLQMNSLKPEDTAVFYCAKDRGSVFKRKYYYWGQGTQVTVSS” here?
Its value is “low polyreactivity”.

Which “polyreactivity (PSR sort gate)” value does the source give for “QVQLVESGGGLVQAGGSRRLCCAASGITLPVYGMGWYIQAPGKERELVAVIDIVGITNYADSVKGRFPISRDNAKNTVYLMMNSLKPEDTAVYYCAKRYVYIADGGEYYYLGQGTQVTVSS” here?
The value was “low polyreactivity”.

Which “polyreactivity (PSR sort gate)” value does the source give for “QVQLVESGGGLVQAGGSRRLRCAASGRTFWTYAMGWYRQAPGKEREFVAAISYSGSSTYADSVKGRFTISRDNATNTVYLQMKSLKPEDTAVYFCAAYLYTAVVAYGYVSWGQGTQVTVSS” here?
Its value is “low polyreactivity”.

For “QVQLVESGGGLVQAGGSRRLRCAASGSIISSYALGWYRQAPGQEMEFVAAISTGGRTYYADSVKGRFTISRDNGKNTVYLQMNSLKPEDTAVYYCAADGPLPHKVGTHTLDYWGQGTQVTVSS”, which “polyreactivity (PSR sort gate)” value is on record?
Its value is “low polyreactivity”.

Which “polyreactivity (PSR sort gate)” value does the source give for “QVQLVESGGGLVQAGGSRRLSCAASGFTFLAYALGWYRQAPGKERELVAAISWDGGSTYYADSVKGRFTISRDNAKNTVYLQMNSLKPEDTAVYYCNRRSRRQGGYWGQGTQVTVSS” here?
The value was “high polyreactivity”.

Which “polyreactivity (PSR sort gate)” value does the source give for “QVQLVESGGGLVQAGGSRRLSCAASGFTFQDYAMGWYRQAPGKERELVAAISKSGGRTYYADSVKRRFTISRDNAKKTVYLEMNSLKPEETAVYYCAALPLYSQDYDYWGPGTQVTVSS” here?
Its value is “high polyreactivity”.

Which “polyreactivity (PSR sort gate)” value does the source give for “QVQLVESGGGLVQAGGSRRLSCAASGGTFVSYAMGWYIQAPGKERELVADITYSGGSTYYADSVKGRFTISRDNAKNTVYLQMNSLKPEDTAVYYCAADLGRNLLHTYYYWGQGTQVTVSS” here?
The value was “low polyreactivity”.

Which “polyreactivity (PSR sort gate)” value does the source give for “QVQLVESGGGLVQAGGSRRLSCAASGISFGSYVMGWYRQAPGKERELVAAISWSGGSTNYADSVKGRFTISRDNSKNTVYLQMNILKPEDTAVFYCAAEYDVYGYYYWGQGTQVTVSS” here?
The value was “high polyreactivity”.

For “QVQLVESGGGLVQAGGSRRLSCAASGRTFIVYAMGWYRQAPGKERELVARISSGSRTSYADSVKGRFTISRDNAKNTVYLQMNSLKPEDTAVYYCAKSRVIKYEFDYWGQGTQVTVSS”, which “polyreactivity (PSR sort gate)” value is on record?
Its value is “low polyreactivity”.
